T1: human MerTK on M2c-differentiated human macrophages (human, UniProt Q12866 21-999)
T1 sequence: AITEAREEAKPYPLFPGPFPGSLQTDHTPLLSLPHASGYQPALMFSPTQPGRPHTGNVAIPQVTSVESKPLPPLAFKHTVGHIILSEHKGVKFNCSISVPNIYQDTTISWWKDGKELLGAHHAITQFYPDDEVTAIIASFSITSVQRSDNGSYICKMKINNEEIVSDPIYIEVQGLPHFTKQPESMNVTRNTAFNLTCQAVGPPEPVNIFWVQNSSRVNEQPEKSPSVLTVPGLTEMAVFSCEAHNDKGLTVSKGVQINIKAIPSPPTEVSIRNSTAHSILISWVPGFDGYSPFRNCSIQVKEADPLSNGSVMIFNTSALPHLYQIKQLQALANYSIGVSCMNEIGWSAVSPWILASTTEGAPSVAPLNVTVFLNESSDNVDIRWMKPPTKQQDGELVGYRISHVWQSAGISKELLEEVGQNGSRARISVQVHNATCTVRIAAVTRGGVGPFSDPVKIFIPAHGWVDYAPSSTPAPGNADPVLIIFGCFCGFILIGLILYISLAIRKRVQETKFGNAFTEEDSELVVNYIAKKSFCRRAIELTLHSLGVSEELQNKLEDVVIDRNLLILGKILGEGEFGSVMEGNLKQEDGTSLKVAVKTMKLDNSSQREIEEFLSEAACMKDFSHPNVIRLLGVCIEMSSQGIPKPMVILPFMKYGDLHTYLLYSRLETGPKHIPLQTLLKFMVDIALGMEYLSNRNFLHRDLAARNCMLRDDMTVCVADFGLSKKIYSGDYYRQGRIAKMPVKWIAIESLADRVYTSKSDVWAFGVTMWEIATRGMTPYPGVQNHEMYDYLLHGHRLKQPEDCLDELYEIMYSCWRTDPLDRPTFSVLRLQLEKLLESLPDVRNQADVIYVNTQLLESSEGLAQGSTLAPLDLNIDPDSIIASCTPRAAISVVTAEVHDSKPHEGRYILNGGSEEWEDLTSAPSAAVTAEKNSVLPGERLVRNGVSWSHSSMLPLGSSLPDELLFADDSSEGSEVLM

T2: recombinant cynomolgus MerTK extracellular domain (cynomolgus monkey, UniProt Q12866 21-505 (human entry))
T2 construct: also called cynoMerTK; cyno MerTK; not shown: PolyHis tag or TEVS/Thrombin/murine IgG2a Fc tag
T2 chain: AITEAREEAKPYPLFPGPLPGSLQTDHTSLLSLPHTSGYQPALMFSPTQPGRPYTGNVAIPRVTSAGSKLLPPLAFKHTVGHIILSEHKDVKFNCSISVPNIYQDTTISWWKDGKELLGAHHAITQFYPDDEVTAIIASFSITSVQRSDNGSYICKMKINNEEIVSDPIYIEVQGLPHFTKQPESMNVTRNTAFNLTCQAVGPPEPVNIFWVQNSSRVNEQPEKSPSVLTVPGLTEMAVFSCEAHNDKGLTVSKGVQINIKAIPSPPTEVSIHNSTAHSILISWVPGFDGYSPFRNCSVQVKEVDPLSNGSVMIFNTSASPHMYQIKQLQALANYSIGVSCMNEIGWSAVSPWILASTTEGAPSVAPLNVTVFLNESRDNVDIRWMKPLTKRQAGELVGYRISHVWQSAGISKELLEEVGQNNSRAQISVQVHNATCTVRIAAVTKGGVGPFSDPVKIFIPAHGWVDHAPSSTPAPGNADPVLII

B1: monovalent anti-MerTK antibody MTK-16.2 (antibody, V domains shown)
VH: QVQLVQSGSELKKPGASVKVSCKASGYTFTNHGMNWVRQAPGQGLEWMGWINTYTGEPTYADDFKGRFVFSLDTSVSTAYLQISSLKAEDTAVYYCARKGVTAARYFDYWGQGTLVTVSS
VL: DIQMTQSPSSLSASVGDRVTITCRASQNVRTAVAWYQQKPGKAPKRLIYLASNRHTGVPSRFSGSGSGTEFTLTISNLQPEDFATYYCLQHWNYPLTFGGGTKLEIK
B2: monovalent anti-MerTK antibody MTK-33.11 (antibody, V domains shown)
VH: QVQLVQSGAEVKKPGASVKVSCKASGYTFTSYWMHWVRQAPGQGLEWIGVIDPSDNYINYNQKFQGRVTMTRDTSTSTVYMELSSLRSEDTAVYYCAREAWTRGYFDYWGQGTLVTVSS
VL: DIQMTQSPSSLSASVGDRVTITCQASRSVRNTVAWYQQKPGKAPKLLIYYASNRYTGVPSRFSGSGSGTDFTFTISSLQPEDIATYYCQQDYRSPFTFGQGTKLEIK
B3: bispecific anti-MerTK MTK-33.11:anti-PDL1 antibody (bispecific antibody, V domains shown)
VH 1: B2 VH
VL 1: B2 VL
VH 2: not shown
VL 2: not shown
B4: bivalent anti-MerTK antibody MTK-33.11 (full IgG) (antibody, V domains shown)
VH: B2 VH
VL: DIQMTQSPSSLSASVGDRVTITCQASRSVRNTVAWYQQKPGKAPKLLIYYASNRYTGVPSRFSGSGSGTDFTFTISSLQPEDIATYYCQQDYRSPFTFGQGTKLEIKR
B5: bivalent anti-MerTK antibody MTK-16.2 (full IgG) (antibody, V domains shown)
VH: B1 VH
VL: DIQMTQSPSSLSASVGDRVTITCRASQNVRTAVAWYQQKPGKAPKRLIYLASNRHTGVPSRFSGSGSGTEFTLTISNLQPEDFATYYCLQHWNYPLTFGGGTKLEIKR
B6: bispecific anti-MerTK MTK-16.2:anti-PDL1 antibody (bispecific antibody, V domains shown)
VH 1: B1 VH
VL 1: B1 VL
VH 2: not shown
VL 2: not shown

Assays:
[1] = target: T1, human MerTK on M2c-differentiated human …; assay: cell-based or functional assay
[2] = target: T2, recombinant cynomolgus MerTK …; assay: SPR (Carterra LSA), antibody immobilized, MerTK ECD as analyte; estimate, fits not ideal for a 1:1 model
Description: Binding kinetics of bispecific anti-MerTK:anti-PDL1 antibodies of the present disclosure to human, cyno, and murine MerTK were evaluated using a Carterra LSA instrument. […] A HC30 sensor chip (Carterra) was activated using the single channel flow cell with a 7-minute injection of a 1:1:1 mixture of 100 mM MES pH 5.5, 100 mM sulfo-NHS, 400 mM EDC (all reconstituted in MES pH 5.5; 100 μl of each mixed in vial immediately before running assay). After switching to the multi-channel array flow cell, the antibodies were injected over the activated chip in a 96-spot array for 15 minutes. A duplicate injection of the antibodies on a second block of the chip was spotted as before. The remaining unconjugated active groups on the chip were then blocked by injecting 1M Ethanolamine pH 8.5 (Carterra) for 7 minutes using the single channel flow cell.
After priming with running buffer (HBS-TE, Carterra) with 0.5 mg/ml BSA (Sigma), the immobilized anti-MerTK antibodies were tested for their ability to bind to several forms of recombinant MerTK extracellular domain, including that of human, cynomolgus, and mouse orthologs as described above. Estimates of affinity were generated by injecting each analyte over the entire antibody array using the single channel flow cell. […] Dissociation was followed for 300 seconds before regenerating after each injection with 2×30 seconds of 10 mM Glycine pH2.5. Three buffer blanks were run between each series (one species per series). After all concentrations of all three species of MerTK were injected, a duplicate set of injections was performed, so that each concentration for all three species was injected in widely spaced duplicates. Data were processed and analyzed using NextGenKIT high-throughput kinetics analysis software (Carterra).

[3] = target: T1, human MerTK on M2c-differentiated human …; assay: cell-based or functional assay; remark: listed apart in the source
[4] = target: T1, human MerTK on M2c-differentiated human …; assay: flow cytometry on M2c-differentiated human macrophages, Dylight650-conjugated antibody; average FACS Kd from Prism fit of MFI
Excerpt: Human macrophages were differentiated from human monocytes for 7 days in the presence of human M-CSF, resulting in M2c-differentiated human macrophages. After 7 days, the differentiated human macrophages were harvested (by scraping), resuspended in PBS, and plated on 96-well plates for use. CHO cells overexpressing human MerTK (CHO-huMerTK OE), CHO cells overexpressing human PDL1 (CHO-huPDL1 OE), and M2c-differentiated human macrophages were stained with Dylight650-conjugated bispecific anti-MerTK:anti-PDL1 antibodies, or bivalent anti-MerTK antibodies for 30 min on ice. A range of antibody concentrations were used in these studies to obtain binding curves. All antibodies tested in these studies were IgG1 having Fc regions comprising LALAPS mutations. Cells were fixed and then acquired on a BD FACS Canto II cytometer. The mean fluorescence intensity (MFI) was calculated using FlowJo software and Kd value was calculated using Prism software.

| Average IC50 (nM) in the presence of huGas6 (huGas6-mediated pAKT reducing activity) [1] [nM] | Kd [2] [nM] | Average Efferocytosis blocking IC50 [3] [nM] | Kd [4] [nM] | Binder |
| --- | --- | --- | --- | --- |
| 15.3 | 60 | 37.9 | 77.8 | B1 |
| 17.9 | 3 | 4.45 | 9.96 | B2 |
| 9.03 | 2 | 4.42 | – | B3 |
| 1.25 | 2 | 0.341 | 2 | B4 |
| 3.22 | 60 | 0.436 | 51.9 | B5 |
| 12.3 | 30 | – | – | B6 |

From patent US20240279341A1 (Alector, published 2024)
